Tested on: Escherichia coli TOP10
Assay: shrunken log2 fold change of peptide-encoding DNA abundance (4.5 h post-induction vs induction); higher = less antimicrobial activity (less host growth inhibition)
Settings: time post-induction: 4.5 h; library: site-saturation at positions 5, 18, 19, 20
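Also: peptides expressed intracellularly from a pBAD plasmid library in pooled LB shake-flask culture, induced with 0.3% L-arabinose, DNA abundance read by NGS, three biological replicates, DESeq2 with apeglm shrinkage.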

RRIRFRPPRLPRPRPRPTCRPRP and RRIRFRPPRLPRPRPRPTDNPRP are within 0.2 log units of each other in “shrunken log2 fold change” value: -0.0357 for the first, -0.205 for the second.

RRIRFRPPRLPRPRPRPTDRPRP and RRIRFRPPRLPRPRPRPTDWPRP are within 0.2 log units of each other in “shrunken log2 fold change” value: 0.243 for the first, 0.335 for the second.

Going from RRIRFRPPRLPRPRPRPTFDPRP to RRIRFRPPRLPRPRPRPTFLPRP, the “shrunken log2 fold change” value falls from -0.138 to -0.452.

Compared with RRIRFRPPRLPRPRPRPTFMPRP, RRIRFRPPRLPRPRPRPTGPPRP is higher in “shrunken log2 fold change” value: -0.444 for the first, 0.445 for the second.

RRIRFRPPRLPRPRPRPTHMPRP and RRIRFRPPRLPRPRPRPTIWPRP are within 0.2 log units of each other in “shrunken log2 fold change” value: 0.0264 for the first, -0.000248 for the second.

Compared with RRIRFRPPRLPRPRPRPTLKPRP, RRIRFRPPRLPRPRPRPTLWPRP is higher in “shrunken log2 fold change” value: -0.0426 for the first, 0.275 for the second.

Compared with RRIRFRPPRLPRPRPRPTPLPRP, RRIRFRPPRLPRPRPRPTRDPRP is higher in “shrunken log2 fold change” value: 0.3 for the first, 0.613 for the second.

First: RRIRFRPPRLPRPRPRPTRKPRP
Second: RRIRFRPPRLPRPRPRPTRQPRP
The “shrunken log2 fold change” value of the first is higher: 0.516 for the first, 0.298 for the second.

Compared with RRIRFRPPRLPRPRPRPTSAPRP, RRIRFRPPRLPRPRPRPTSVPRP is lower in “shrunken log2 fold change” value: 0.344 for the first, -0.0668 for the second.

RRIRFRPPRLPRPRPRPTTHPRP and RRIRFRPPRLPRPRPRPTTSPRP are within 0.2 log units of each other in “shrunken log2 fold change” value: -0.0585 for the first, 0.0366 for the second.

RRIRFRPPRLPRPRPRPTTTPRP and RRIRFRPPRLPRPRPRPTWSPRP are within 0.2 log units of each other in “shrunken log2 fold change” value: 0.212 for the first, 0.188 for the second.

RRIRFRPPRLPRPRPRPTYCPRP and RRIRFRPPRLPRPRPRPTYEPRP are within 0.2 log units of each other in “shrunken log2 fold change” value: -0.339 for the first, -0.3 for the second.

RRIRFRPPRLPRPRPRPVAKPRP and RRIRFRPPRLPRPRPRPVCFPRP are within 0.2 log units of each other in “shrunken log2 fold change” value: -0.0163 for the first, -0.151 for the second.

Compared with RRIRFRPPRLPRPRPRPVDDPRP, RRIRFRPPRLPRPRPRPVDRPRP is higher in “shrunken log2 fold change” value: -0.601 for the first, 0.123 for the second.

Going from RRIRFRPPRLPRPRPRPVEGPRP to RRIRFRPPRLPRPRPRPVFVPRP, the “shrunken log2 fold change” value falls from -0.0615 to -0.277.

RRIRFRPPRLPRPRPRPVGEPRP and RRIRFRPPRLPRPRPRPVGGPRP are within 0.2 log units of each other in “shrunken log2 fold change” value: 0.29 for the first, 0.405 for the second.

Going from RRIRFRPPRLPRPRPRPVGKPRP to RRIRFRPPRLPRPRPRPVGWPRP, the “shrunken log2 fold change” value rises from 0.13 to 0.62.

Compared with RRIRFRPPRLPRPRPRPVHLPRP, RRIRFRPPRLPRPRPRPVIIPRP is lower in “shrunken log2 fold change” value: -0.0117 for the first, -0.415 for the second.

RRIRFRPPRLPRPRPRPVKPPRP and RRIRFRPPRLPRPRPRPVKRPRP are within 0.2 log units of each other in “shrunken log2 fold change” value: -0.0579 for the first, 0.0219 for the second.

RRIRFRPPRLPRPRPRPVLIPRP and RRIRFRPPRLPRPRPRPVMFPRP are within 0.2 log units of each other in “shrunken log2 fold change” value: -0.17 for the first, -0.218 for the second.

RRIRFRPPRLPRPRPRPVMYPRP and RRIRFRPPRLPRPRPRPVNHPRP are within 0.2 log units of each other in “shrunken log2 fold change” value: -0.195 for the first, -0.384 for the second.

First: RRIRFRPPRLPRPRPRPVPIPRP
Second: RRIRFRPPRLPRPRPRPVQAPRP
The “shrunken log2 fold change” value of the first is lower: -0.0344 for the first, 0.183 for the second.

Going from RRIRFRPPRLPRPRPRPVQTPRP to RRIRFRPPRLPRPRPRPVREPRP, the “shrunken log2 fold change” value rises from 0.0206 to 0.269.

Going from RRIRFRPPRLPRPRPRPVTMPRP to RRIRFRPPRLPRPRPRPVVCPRP, the “shrunken log2 fold change” value rises from -0.295 to -0.0801.

RRIRFRPPRLPRPRPRPVWTPRP and RRIRFRPPRLPRPRPRPVWYPRP are within 0.2 log units of each other in “shrunken log2 fold change” value: -0.488 for the first, -0.308 for the second.

Going from RRIRFRPPRLPRPRPRPVYCPRP to RRIRFRPPRLPRPRPRPWADPRP, the “shrunken log2 fold change” value rises from -0.408 to -0.168.

RRIRFRPPRLPRPRPRPWCLPRP and RRIRFRPPRLPRPRPRPWCMPRP are within 0.2 log units of each other in “shrunken log2 fold change” value: -0.17 for the first, -0.214 for the second.

Going from RRIRFRPPRLPRPRPRPWCYPRP to RRIRFRPPRLPRPRPRPWDFPRP, the “shrunken log2 fold change” value rises from -0.751 to -0.0975.

Going from RRIRFRPPRLPRPRPRPWDGPRP to RRIRFRPPRLPRPRPRPWDLPRP, the “shrunken log2 fold change” value rises from 0.00772 to 2.08.

Going from RRIRFRPPRLPRPRPRPWDVPRP to RRIRFRPPRLPRPRPRPWFCPRP, the “shrunken log2 fold change” value rises from -0.0811 to 3.7.

First: RRIRFRPPRLPRPRPRPWHLPRP
Second: RRIRFRPPRLPRPRPRPWIQPRP
The “shrunken log2 fold change” value of the first is higher: -0.0307 for the first, -0.997 for the second.

RRIRFRPPRLPRPRPRPWKRPRP and RRIRFRPPRLPRPRPRPWLGPRP are within 0.2 log units of each other in “shrunken log2 fold change” value: -0.0222 for the first, 0.0212 for the second.

RRIRFRPPRLPRPRPRPWLVPRP and RRIRFRPPRLPRPRPRPWPLPRP are within 0.2 log units of each other in “shrunken log2 fold change” value: -0.135 for the first, -0.0977 for the second.

RRIRFRPPRLPRPRPRPWQPPRP and RRIRFRPPRLPRPRPRPWRDPRP are within 0.2 log units of each other in “shrunken log2 fold change” value: 0.0512 for the first, -0.136 for the second.

RRIRFRPPRLPRPRPRPWRIPRP and RRIRFRPPRLPRPRPRPWSDPRP are within 0.2 log units of each other in “shrunken log2 fold change” value: -0.0447 for the first, -0.159 for the second.

RRIRFRPPRLPRPRPRPWSKPRP and RRIRFRPPRLPRPRPRPWTVPRP are within 0.2 log units of each other in “shrunken log2 fold change” value: -0.079 for the first, -0.0388 for the second.

Going from RRIRFRPPRLPRPRPRPWVCPRP to RRIRFRPPRLPRPRPRPWVDPRP, the “shrunken log2 fold change” value falls from 0.029 to -0.608.

For RRIRFRPPRLPRPRPRPWVIPRP, the “shrunken log2 fold change” value was -0.412.
